The text below walks through data of paper PMC12401179, “Biophysical characterization and ion transport with cell‐based and proteoliposome reconstitution assays of invertebrate K^+‐Cl^− cotransporters” (FEBS Open Bio, 2025).

In one assay the target is T1, DmKCC (Drosophila melanogaster, UniProt Q7KVH5).
T1 construct: gene kcc; full-length cDNA, N-terminal 8xHis and FLAG tags (no cleavage stated), Sf9 baculovirus expression, DDM/CHS Ni-NTA purified, reconstituted in azolectin proteoliposomes
T1 sequence (Q7KVH5 1-1028): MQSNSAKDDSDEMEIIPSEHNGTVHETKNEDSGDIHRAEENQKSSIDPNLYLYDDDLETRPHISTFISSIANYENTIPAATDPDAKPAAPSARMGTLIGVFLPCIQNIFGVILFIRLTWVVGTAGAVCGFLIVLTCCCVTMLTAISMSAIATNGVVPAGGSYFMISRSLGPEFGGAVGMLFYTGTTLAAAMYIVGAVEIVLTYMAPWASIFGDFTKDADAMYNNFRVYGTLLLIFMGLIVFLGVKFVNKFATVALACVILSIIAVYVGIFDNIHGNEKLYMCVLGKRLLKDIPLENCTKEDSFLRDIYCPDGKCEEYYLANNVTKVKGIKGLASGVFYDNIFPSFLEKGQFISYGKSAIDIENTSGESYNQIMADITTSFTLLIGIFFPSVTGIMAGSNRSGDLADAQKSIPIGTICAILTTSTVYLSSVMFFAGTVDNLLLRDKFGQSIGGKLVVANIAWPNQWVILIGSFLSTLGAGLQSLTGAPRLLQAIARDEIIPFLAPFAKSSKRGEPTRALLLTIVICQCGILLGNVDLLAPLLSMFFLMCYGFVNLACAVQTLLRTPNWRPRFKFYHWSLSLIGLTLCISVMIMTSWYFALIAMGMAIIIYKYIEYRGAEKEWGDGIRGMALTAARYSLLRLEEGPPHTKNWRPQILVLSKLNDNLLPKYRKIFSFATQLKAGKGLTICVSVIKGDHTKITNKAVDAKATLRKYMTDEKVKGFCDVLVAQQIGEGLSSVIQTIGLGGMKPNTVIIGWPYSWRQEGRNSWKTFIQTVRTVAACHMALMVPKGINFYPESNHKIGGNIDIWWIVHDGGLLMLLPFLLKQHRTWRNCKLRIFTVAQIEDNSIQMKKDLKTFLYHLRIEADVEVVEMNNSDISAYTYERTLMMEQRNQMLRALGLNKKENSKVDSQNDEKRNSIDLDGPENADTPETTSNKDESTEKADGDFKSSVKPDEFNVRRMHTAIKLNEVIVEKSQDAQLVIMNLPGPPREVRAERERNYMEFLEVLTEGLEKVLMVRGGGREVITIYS
The experiment in a line: K+ influx into proteoliposomes, fluorescent K+ probe (ION Potassium Green-2 TMA+). Format: biochemical.

Assay [1] concerns the target Drosophila melanogaster K+-Cl- cotransporter (DmKCC) variant B (Drosophila melanogaster). The experiment in a line: SEC; Superdex 200 10/300 gel filtration in 20 mM HEPES pH 7.4, 150 mM NaCl, 50 mM KCl, 0.015% DDM, 0.003% CHS, 5% glycerol; elution profile compared with that of HvKCC, whose dimer was verified by SEC-MALLS. In general terms: In gel filtration, larger molecules generally elute earlier.

The target in assay [2] is Hydra vulgaris K+-Cl- cotransporter (HvKCC) (Hydra vulgaris). The experiment in a line: SEC-MALS; SEC-MALLS; protein at 1.0 mg/mL on Superdex 200 10/300 in 20 mM HEPES pH 7.4, 150 mM NaCl, 50 mM KCl, 0.015% DDM, 0.003% CHS, 5% glycerol; protein conjugate analysis (ASTRA 6); single measurement.

With `O=S(=O)(O)c1cc(N=C=S)ccc1C=Cc1ccc(N=C=S)cc1S(=O)(=O)O` [DIDS, 4,4′‐diisothiocyano‐2,2′‐stilbenedisulfonic acid], on DmKCC, the IC50 was 0.025 µM.

As for “Drosophila melanogaster K+-Cl- cotransporter (DmKCC) variant B (natural protein)”, the stoichiometry N in assay [1] amounted to 2.

Take “Hydra vulgaris K+-Cl- cotransporter (HvKCC) (natural protein)”: the stoichiometry N in assay [2] came out at 2.

One may read the IC50 as the point on the concentration scale where inhibition reaches its midpoint. The low end stands for higher potency, the high end for lower potency. A word on the stoichiometry N: it is a count of units in the complex or per binding partner.
